In paper PMC5974088 (2018) one finds Kd data, which are given here for one molecule.

Where no end group is shown, it is not given here. Me2 = dimethyl-lysine

What all share (experiment): ITC
The target of assay [1] is 53BP1 Tudor Y1523A (H. sapiens, UniProt Q12888 1484-1603, Y1523A).
Assay [2] has as its target 53BP1 Tudor D1521A (H. sapiens, UniProt Q12888 1484-1603, D1521A).
In assay [3] the target is 53BP1 Tudor Y1502A (H. sapiens, UniProt Q12888 1484-1603, Y1502A).
Assay [4] concerns the target 53BP1 Tudor W1495A (H. sapiens, UniProt Q12888 1484-1603, W1495A).
The target in assay [5] is 53BP1 Tudor Y1523S (H. sapiens, UniProt Q12888 1484-1603, Y1523S).
In assay [6] the target is 53BP1 Tudor Y1500A (H. sapiens, UniProt Q12888 1484-1603, Y1500A).
Chain of 53BP1 Tudor Y1500A (Q12888 other isoform, or with tags, fused parts or gaps Y1500A | Y1500A): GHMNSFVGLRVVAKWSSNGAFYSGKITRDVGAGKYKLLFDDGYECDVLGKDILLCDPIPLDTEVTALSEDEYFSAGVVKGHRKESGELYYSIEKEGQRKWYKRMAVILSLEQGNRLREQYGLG
Assay [7] concerns the target T1, 53BP1 tandem Tudor domain (1484-1603) (H. sapiens, UniProt Q12888 1484-1603).
T1 chain: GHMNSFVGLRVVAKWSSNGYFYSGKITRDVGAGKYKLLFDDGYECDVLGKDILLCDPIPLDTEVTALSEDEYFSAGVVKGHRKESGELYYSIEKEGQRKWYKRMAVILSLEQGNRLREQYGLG

Chain of 53BP1 Tudor W1495A (Q12888 other isoform, or with tags, fused parts or gaps W1495A | W1495A): as the sequence (Q12888 other isoform, or with tags, fused parts or gaps Y1500A | Y1500A) above, with W15A, A20Y counted along it
Chain of 53BP1 Tudor Y1502A (Q12888 other isoform, or with tags, fused parts or gaps Y1502A | Y1502A): as the sequence (Q12888 other isoform, or with tags, fused parts or gaps Y1500A | Y1500A) above, with A20Y, Y22A counted along it
Chain of 53BP1 Tudor D1521A (Q12888 other isoform, or with tags, fused parts or gaps D1521A | D1521A): as the sequence (Q12888 other isoform, or with tags, fused parts or gaps Y1500A | Y1500A) above, with A20Y, D41A counted along it

As for KRHRK(Me2)VLRDN [H4K20me2], the dissociation constant Kd was 7.8 µM in assay [1]; above 1500 µM in assay [2]; 151 µM in assay [3]; above 1500 µM in assay [4]; 65.8 µM in assay [5]; 163 µM in assay [6]. Further, the dissociation constant Kd in assay [7] is 19.7 µM.
